Laboratory results as given in US20250011448A1 (STAIDSON BIOPHARMA, published 2025).
Where a chain is given by its changes, count along the chain named.

T1: human TNFR2 extracellular domain with C-terminal 10×His tag (human, UniProt P20333 23-257)
T1 construct: also called huTNFR2-His; His-tag-huTNFR2
T1 sequence: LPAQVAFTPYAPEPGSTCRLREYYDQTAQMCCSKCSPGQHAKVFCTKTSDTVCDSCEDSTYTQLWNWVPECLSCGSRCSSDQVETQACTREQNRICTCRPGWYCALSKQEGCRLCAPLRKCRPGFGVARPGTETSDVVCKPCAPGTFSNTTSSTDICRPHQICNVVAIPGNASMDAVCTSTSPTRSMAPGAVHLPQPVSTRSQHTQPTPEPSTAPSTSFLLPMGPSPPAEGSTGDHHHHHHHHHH

T2: human TNFR2 expressed on cells (Expi293 cells stably expressing huTNFR2) (human, UniProt P20333 23-461)
T2 construct: whole, on cells; Also used here as the target of the Treg assay (native TNFR2 on human primary Treg cells); also called huTNFR2 expressed cells; Expi293-TNFR2 cells
T2 sequence (looked up): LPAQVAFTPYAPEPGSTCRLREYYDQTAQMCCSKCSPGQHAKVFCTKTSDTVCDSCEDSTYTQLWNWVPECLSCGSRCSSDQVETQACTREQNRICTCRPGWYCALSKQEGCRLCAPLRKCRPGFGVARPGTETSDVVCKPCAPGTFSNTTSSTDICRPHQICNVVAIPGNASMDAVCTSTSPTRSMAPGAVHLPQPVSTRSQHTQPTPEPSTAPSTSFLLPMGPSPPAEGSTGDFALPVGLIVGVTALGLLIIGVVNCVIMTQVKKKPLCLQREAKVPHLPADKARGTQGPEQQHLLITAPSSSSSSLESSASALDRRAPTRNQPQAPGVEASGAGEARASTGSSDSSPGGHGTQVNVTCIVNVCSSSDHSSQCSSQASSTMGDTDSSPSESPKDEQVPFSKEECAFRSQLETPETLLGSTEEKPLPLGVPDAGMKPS

T3: human TNFR2 extracellular domain fused to human IgG1 Fc (human, UniProt P20333 23-257)
T3 construct: also called TNFR2-huFc; huTNFR2; not shown: C-terminal human IgG1 Fc
T3 sequence: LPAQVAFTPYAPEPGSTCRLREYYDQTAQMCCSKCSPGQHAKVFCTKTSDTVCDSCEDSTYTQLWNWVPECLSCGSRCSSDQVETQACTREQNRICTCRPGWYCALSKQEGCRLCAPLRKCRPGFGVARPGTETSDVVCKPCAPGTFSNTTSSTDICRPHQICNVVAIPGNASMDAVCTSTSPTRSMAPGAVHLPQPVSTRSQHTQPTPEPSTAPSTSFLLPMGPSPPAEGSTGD

T4: cynomolgus monkey TNFR2 extracellular domain with C-terminal 10×His tag (cynomolgus monkey, UniProt P20333 23-257 (human entry))
T4 construct: also called cynoTNFR2-His; His-tag-cynoTNFR2
T4 chain: T1 sequence with S16G, S36P, P117Q, N164H, E210A, S216G, M223V

B1: SB1901-72 humanized anti-TNFR2 antibody (antibody, V domains shown)
VH: QVQLVQSGAEVKKPGASVKVSCKASGYTFTDDYIDWVRQATGQGLEWIGEIYPGSGNTYYNEKFKGRVTMTRDKSISTAYMELSSLRSEDTAVYYCARSQVYGKIAMDHWGQGTLVTVSS
VL: DIVMTQSPDSLAVSLGERATINCRASESVDNSGNSFMHWYQQKPGQPPKLLIYRASNLESGVPDRFSGSGSRTDFTLTISSLQAEDVAVYYCQQSKEDPYTFGQGTKVEIK
B2: 102E4 chimeric anti-TNFR2 antibody (antibody, V domains shown)
VH: EVLLQQSGAELVRPGASVKLSCTASGFNIKDDFIHWVQQRPEQGLEWIGRINPSNANTEYAPKFQDKATITTDTSSNTAYLQLSSLTSEDTAVYYCTRNDGYYDGLFYWGQGTTLTVSS
VL: DIVMTQSHKFMSSSVGDRVSITCKASQDVGTAVAWYQQKPGQSPKLLIYWASTRHTGVPDRFTGSGSGTDFTLTISNVQSEDLADYFCQQYSSYPFTFGSGTKLEIK
notes: Chimeric: mouse variable domains with human constant regions, made as recombinant IgG1

Tests used:
[1] = molecular target: T1, human TNFR2 extracellular domain with …; test: BLI (Octet RED96), AHC capture, His-tag-huTNFR2 in solution; antibody sample after 4 weeks at 40 °C
Description: (§1) The following kinetic assay was performed using anti-human IgG Fc capture (AHC) biosensors (ForteBio) in kinetics buffer (PBS, 0.1% Tween-20 and 1% bovine serum albumin): (a) antibody sample (2 μg/mL) for 300 see, (b) baseline for 120 see, (c) association with His-tag-huTNFR2 (2.5, 0.5 and 0 μg/mL) for 420 sec and (d) dissociation for 1200 sec. Data fitting and analysis was performed with Octet data analysis software 8.0 (ForteBio) using a 1:1 binding model after Savitzky-Golay filtering.
(§2) The binding kinetic data were presented in Table 18, showing that the binding with human-TNFR2 was not affected under the accelerated thermal stressed condition (4 weeks at […]

[2] = molecular target: T1, human TNFR2 extracellular domain with …; test: BLI (Octet RED96), antibody captured on AHC biosensor, His-tag-huTNFR2 in solution, 1:1 model
Description: as §1, with “antibody” for “antibody sample”, “sec,” for “see,”, “filtering. The dissociation constant (Kd) was calculated as the ratio of Koff/Kon.” for “filtering.”

[3] = molecular target: T1, human TNFR2 extracellular domain with …; test: BLI (Octet RED96), AHC capture, His-tag-huTNFR2 in solution; antibody sample at week 0 of storage at 40 °C
Description: as §1, §2

[4] = molecular target: T2, human TNFR2 expressed on cells (Expi293 …); test: flow cytometry on Expi293 cells stably expressing huTNFR2, y axis TNFR2 binding (MFI)
Description: (§3) The coding sequence of huTNFR2 (Uniprot, P20333) was cloned into a lentiviral vector and the virus was packaged according to the instruction of the virus packaging kit (Lenti-X™ Packaging Single Shots, Cat #631275, Takada). The Expi293 cells were transduced with the recombinant virus and selected by puromycin. The cell line stably expressing huTNFR2 was incubated with anti-TNFR2 antibodies in PBS with 0.5% BSA, 1 mM EDTA, and 0.1% sodium azide (FACS buffer) for 30 minutes at 4° C. The cells were washed, and then incubated with 10 nM phycoerythrin (PE) conjugated anti-Human Fe Ab (Biolegend, cat #409304) for 20 minutes at 4° C. Cells were washed and then […] by flow cytometry with Attune (ThermoFisher Scientific). Data were analyzed with FlowJo software. Antibody binding is represented as median fluorescence intensity (MFI).
FACS based binding and blocking assays of humanized antibodies were performed as described above.

[5] = molecular target: T1, human TNFR2 extracellular domain with …; test: BLI (Octet RED96), AHC capture, His-tag-huTNFR2 in solution; antibody sample after 2 weeks at 40 °C
Description: as §1

[6] = molecular target: T3, human TNFR2 extracellular domain fused …; test: blocking ELISA: antibody pre-mixed with huTNFR2, binding of huTNFR2 to coated human TNFα read out
Description: 96-well round bottom ELISA plates were coated overnight at 4° C. with 50 μL/well of 0.5 μg/mL human TNFα recombinant protein (R&D system, Cat #210-TA-100) in coating buffer. After removing the coating solution, blocking buffer was added into the plates followed by incubation at room temperature for 1 hour in order to block unspecific binding. During the blocking period, hybridoma antibodies samples were mixed with 0.5 μg/mL TNFR2-huFc at a 1:1 volume ratio and incubated at room temperature for another 1.5 hours. Then 50 μL/well of antigen-antibody mix solution was transferred into TNFα coated wells and incubated at room temperature for 1.5 hours. Plates were then washed 5 times with wash buffer. Then, 50 μL/well of goats anti-human IgG Fc-AP (Southern Biotech, cat #2014-04) at 1:2000 dilution in assay buffer was added, incubated at room temperature for 1 hour, washed 4 times with wash buffer and developed for 30 minutes with 50 μL/well of pNPP substrate. Plates were analyzed with a Synergy HT (Bio-TEK) at 405 nm. Parental hybridomas with the desired human and cynoTNFR2 binding as well as the ability to block human TNFR2 and human TNFα binding were prioritized for subcloning and further characterization. Subcloning was carried out with limited dilution and visual inspection was performed to ensure clonality. Hybridoma subclones were screened with the same binding and blocking assays and selected positive hits were cryopreserved.
TNFR2 blocking by purified recombinant chimeric antibodies: Human TNFR2 blocking ELISA was performed on purified recombinant chimeric antibodies following the same protocol as described above, except that 50 μL/well of serial dilution of purified antibodies (starting at 10 μg/mL, 1:3 dilution) in assay buffer was added into the reaction. The blocking IC₅₀ value represents the antibody concentration that inhibited 50% of huTNFR2 or cynoTNFR2 binding to coated human TNFα or cynomolgus monkey TNFα.

[7] = molecular target: T1, human TNFR2 extracellular domain with …; test: BLI (Octet RED96), antibody captured on AHC biosensor, His-tagged TNFR2 in solution, 1:1 model
Description: as §1, with “antibody” for “antibody sample”, “sec,” for “see,”, “His-tag-huTNFR2 (2.5, 0.5 and 0 μg/mL) and His-tag-cynoTNFR2” for “His-tag-huTNFR2”

[8] = molecular target: T4, cynomolgus monkey TNFR2 extracellular …; test: ELISA, plate coated with His-tagged TNFR2 ECD, serial dilution of chimeric IgG; ELISA; cynoTNFR2-His coated on plate at 1 µg/mL, bivalent IgG in solution
Description: (§4) TNFR2 binding of purified recombinant chimeric antibodies: The huTNFR2, cynoTNFR2 antigen binding ELISA was performed on the purified recombinant chimeric antibodies. Briefly, 384-well, clear, flat bottom, high binding plates (VWR, cat #29444-096) were coated overnight at 4° C. with 1 μg/mL of huTNFR2 or cynomolgus monkey TNFR2-His in PBS. After removing the coating solution, the plates were blocked by adding blocking buffer and incubated at room temperature for 1 hour. Plates were then washed 3 times with wash buffer. Serial dilution of purified antibodies in PBS was added to individual well followed by incubation at room temperature for 1 hour. Plates were washed 3 times with wash buffer. Then 50 μL/well of goat anti hu Kappa —AP (Southern Biotech, cat #2061-04) at 1:3000 dilution or goat anti human IgG Fc-AP at 1:3000 dilution in ELISA diluent was added, incubated at room temperature for 1 hour, washed 5 times with wash buffer and developed for 30 minutes with 50 μL/well of pNPP substrate. Plates were analyzed with a Bio-TEK at 405 nm. The chimeric TNFR2 antibodies were tested positive for binding to huTNFR2 and cynoTNFR2. The TNFR2 binding EC50 values are shown in Table 6, FIG. 1A (for huTNFR2) and FIG. 1B (for cynoTNFR2).

[9] = molecular target: T2, human TNFR2 expressed on cells (Expi293 …); test: flow cytometry on Expi293 cells stably expressing huTNFR2
Description: as §3
As shown by the results in Table 9 and FIG. 4A, the anti-TNFR2 antibodies, 51B5, 102E4, 85G8.4, 29G3, 11C1, and 15H10 bind to Expi293-TNFR2 cells dose-dependently and potently.

[10] = molecular target: T1, human TNFR2 extracellular domain with …; test: ELISA, plate coated with His-tagged TNFR2 ECD, serial dilution of chimeric IgG
Description: as §4

Binder | Kd [1] | koff [1] | kon [1] | Kd [2] | koff [2] | kon [2] | Kd [3] | koff [3] | kon [3] | EC50 (read off the curve) [4] | Kd [5] | koff [5] | kon [5] | IC50 [6] | Kd [7] | koff [7] | kon [7] | EC50 [8] | EC50 [9] | EC50 [10]
B1 | 1.06 nM | 0.000527 s⁻¹ | 497000 M⁻¹ s⁻¹ | 1.11 nM | 0.000456 s⁻¹ | 412000 M⁻¹ s⁻¹ | 1.68 nM | 0.000495 s⁻¹ | 295000 M⁻¹ s⁻¹ | ~0.6 nM | 1.35 nM | 0.000471 s⁻¹ | 348000 M⁻¹ s⁻¹ | – | – | – | – | – | – | –
B2 | – | – | – | – | – | – | – | – | – | – | – | – | – | 1.13 nM | 1.59 nM | 0.000696 s⁻¹ | 439000 M⁻¹ s⁻¹ | 0.338 nM | 0.819 nM | 0.04 nM
